# Data: patent US20250296984A1, “THERAPEUTIC AND DIAGNOSTIC AGENTS AND USES THEREOF” (priority 2022, published 2025)
# B1: 7B1F3: mouse IgG1 kappa antibody against US28 ECD1 Peptide-N; VH SEQ ID NO: 211, VL SEQ ID NO: 213 (antibody, V domains shown)
# VH: EVQLQQSGAELAKPGASVKMSCKASGYTFTNYWMHWVKQRPGQGLEWIGYVNPRTGYTEYNQKFKDKATLTADKSSRTAYMQLSSLTSEDSAVYSCARILNGTGFAYWGQGTLVTVSA
# VL: DIVLTQSPSSLTVSVGEKFTMSCKSSQSLLYSSNQKNYLAWYQQKPGQSPKLLIYWASTRESGVPDRFTGSGSGTDFTLAISSVKPEDLAIYYCQQYYSFPLTFGAGTKLEIK
# modifications: Mature form of VH sequence of 7B1F3, without the leader sequence; Mature form of VL sequence of 7B1F3, without the leader sequence
# Legend:
# [1] = target: T1, human proteins on HuProt Human Proteome Microarray (Homo sapiens, UniProt Q96F63); experiment: HuProt Human Proteome Microarray, off-target human proteins; type: binding; set-up: key to Z Score: Z = (F635 − mean F635 of all spots) / SD; average of duplicate spots; key to S Score: difference between this protein's Z score and the next-ranked protein's; conditions: Protein: CCDC97
# T1 construct: purchased CDI Labs (HuProt); host or cells: yeast S. cerevisiae
# T1 sequence (Q96F63 1-343): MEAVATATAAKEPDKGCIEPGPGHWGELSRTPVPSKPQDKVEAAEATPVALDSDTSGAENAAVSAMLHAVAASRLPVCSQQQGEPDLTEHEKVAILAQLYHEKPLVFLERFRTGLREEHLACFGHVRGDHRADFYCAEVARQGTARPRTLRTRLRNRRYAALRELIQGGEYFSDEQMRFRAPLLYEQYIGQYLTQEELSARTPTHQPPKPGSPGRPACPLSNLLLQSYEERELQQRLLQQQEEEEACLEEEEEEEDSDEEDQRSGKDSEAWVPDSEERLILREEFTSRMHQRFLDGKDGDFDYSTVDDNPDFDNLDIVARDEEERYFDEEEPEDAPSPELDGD
# Text: (§1) The HuProt™ Human Proteome Microarray provides the largest number of unique, full-length, individually purified human proteins on a single microscope slide. It provides >21,000 unique human proteins, isoform variants, and protein fragments—covering 16,794 unique genes. This includes 15,889 of the 19,613 canonical human proteins described in the Human Protein Atlas, with broad coverage across protein subclasses. This allows thousands of interactions to be profiled in a high-throughput manner. The full-length recombinant proteins are expressed in the yeast S. cerevisiae, purified, and printed on glass slides in duplicate along with a set of control proteins (GST, BSA, histones, IgG, etc.). The full list of the different proteins included in the HuProt™ Human Proteome Microarray as used in this Example is provided as “List B” in the Research Disclosures publication (ISSN 0374-4353, Questel Ireland Ltd) with database numbers 707018, 707019 and 707020, each entitled “Large scale protein arrange target protein identities” and each digitally published on 27 Jan. 2023, the contents of each of which are incorporated herein by reference in their entirety, fo the purposes of the disclosure of the proteins defined by “List B”. “List B” begins in Research Disclosures publication 707018, is continued in Research Disclosures publication 707019, and concludes Research Disclosures publications 707020, and so the three publications are to be read consecutively as a single disclosure of the “List B” proteins. The HuProt™ microarray is not restricted to a particular type of surface coating, although the default is glass coated with ultrathin nitrocellulose film for the non-covalent, yet irreversible, capture of active proteins to the surface.
# (§2) Samples of humanised 7B1F3 and mouse 7B1F3 antibodies were analysed for binding specificities on HuProt™ human proteome arrays. A peptide with the sequence TDVLNQSKPVTL (“Peptide 3”) was added to the arrays at 0.1 mg/ml as a control.
# (§3) After blocking, the arrays were probed with the antibody samples (0.1 μg/ml) at room temperature for 1 hour. Then the arrays were washed with TBST for 10 min×3 and probed with Alexa647-anti-human IgG Fc or Alexa647-anti-mouse IgG secondary antibodies under conditions optimized by CDI Labs for signal detection.
# (§4) • Non-specific hits that directly bind to the secondary antibodies were eliminated from the analysis of the samples. • CDI software was used to quantify the specificity of each individual sample to specific proteins on the array based on Z Scores. • Z score is the average Z score of the duplicate spots of a given protein (each protein is printed in duplicate on a HuProt™ array). The Z score of each spot on a given array is calculated according to the algorithm below:
# (§5) Z=[F635−F635(avg)]/F635(std) • F635(avg) and F635(std) are the average and standard deviation of the F635 values of all spots on the array, respectively. • S score is the difference of the Z Scores of a given protein and the one ranked next to it. If the S score of the top hit is >3, the antibody is considered to be highly specific for the top hit. • F635 is the average foreground signal intensity of 2 replicate spots of a given protein in the detection channel (635 nm). • B635 is the average background signal intensity of 2 replicate spots of a given protein in the detection channel (635 nm).
# [2] = test system: human proteins on HuProt Human Proteome Microarray; experiment: as above; type: binding; set-up: key to Z Score: Z = (F635 − mean F635 of all spots) / SD; average of duplicate spots; key to S Score: difference between this protein's Z score and the next-ranked protein's
# Text: as §1, §2, §3, §4, §5
molecule,measurement,setting,value
B1,F635,[1],2080
same,Z Score,[1],5.922
same,F635,[2]; Protein: AGAP2,10020.5
same,S Score,[2]; Protein: AGAP2,15.511
same,Z Score,[2]; Protein: AGAP2,28.997
same,S Score,[2]; Protein: BYSL,0.378
same,S Score,[2]; Protein: CCDC97,0.353
same,F635,[2]; Protein: DNAJB2,3312
same,S Score,[2]; Protein: DNAJB2,0.235
same,Z Score,[2]; Protein: DNAJB2,9.502
same,F635,[2]; Protein: EXD2,2701.5
same,S Score,[2]; Protein: EXD2,1.271
same,Z Score,[2]; Protein: EXD2,7.728
same,S Score,[2]; Protein: FBXO2,2.911
same,S Score,[2]; Protein: LASP1,1.073
same,F635,[2]; Protein: SYNCRIP,2264
same,S Score,[2]; Protein: SYNCRIP,0.157
same,Z Score,[2]; Protein: SYNCRIP,6.457
same,F635,[2]; Protein: TRIM33,3231
same,S Score,[2]; Protein: TRIM33,1.539
same,Z Score,[2]; Protein: TRIM33,9.267
